Measured values reported in patent publication US20020160013A1 (RECEPTRON, published 2002).

T1: GLUT4 (rat, UniProt P19357 1-509)
T1 sequence (looked up): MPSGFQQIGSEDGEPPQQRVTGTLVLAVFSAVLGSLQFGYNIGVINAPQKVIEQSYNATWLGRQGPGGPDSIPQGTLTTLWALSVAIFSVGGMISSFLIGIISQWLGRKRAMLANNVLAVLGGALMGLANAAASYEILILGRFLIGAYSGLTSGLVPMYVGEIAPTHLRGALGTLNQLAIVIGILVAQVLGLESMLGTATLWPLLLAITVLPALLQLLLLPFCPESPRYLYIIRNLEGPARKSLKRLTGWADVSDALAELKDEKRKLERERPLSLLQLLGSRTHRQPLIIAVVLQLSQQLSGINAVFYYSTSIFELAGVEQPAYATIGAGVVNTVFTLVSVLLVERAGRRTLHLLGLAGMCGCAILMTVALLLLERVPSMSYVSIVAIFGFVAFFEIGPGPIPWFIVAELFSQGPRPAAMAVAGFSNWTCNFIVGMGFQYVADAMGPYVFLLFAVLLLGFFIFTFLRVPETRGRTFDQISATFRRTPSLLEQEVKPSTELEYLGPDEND


Legend:
Experiment in all cases: cell-based or functional assay
[1] = molecular target: Leptin Receptor, long form (UniProt P48357)
Chain of Leptin Receptor, long form (P48357 22-1165): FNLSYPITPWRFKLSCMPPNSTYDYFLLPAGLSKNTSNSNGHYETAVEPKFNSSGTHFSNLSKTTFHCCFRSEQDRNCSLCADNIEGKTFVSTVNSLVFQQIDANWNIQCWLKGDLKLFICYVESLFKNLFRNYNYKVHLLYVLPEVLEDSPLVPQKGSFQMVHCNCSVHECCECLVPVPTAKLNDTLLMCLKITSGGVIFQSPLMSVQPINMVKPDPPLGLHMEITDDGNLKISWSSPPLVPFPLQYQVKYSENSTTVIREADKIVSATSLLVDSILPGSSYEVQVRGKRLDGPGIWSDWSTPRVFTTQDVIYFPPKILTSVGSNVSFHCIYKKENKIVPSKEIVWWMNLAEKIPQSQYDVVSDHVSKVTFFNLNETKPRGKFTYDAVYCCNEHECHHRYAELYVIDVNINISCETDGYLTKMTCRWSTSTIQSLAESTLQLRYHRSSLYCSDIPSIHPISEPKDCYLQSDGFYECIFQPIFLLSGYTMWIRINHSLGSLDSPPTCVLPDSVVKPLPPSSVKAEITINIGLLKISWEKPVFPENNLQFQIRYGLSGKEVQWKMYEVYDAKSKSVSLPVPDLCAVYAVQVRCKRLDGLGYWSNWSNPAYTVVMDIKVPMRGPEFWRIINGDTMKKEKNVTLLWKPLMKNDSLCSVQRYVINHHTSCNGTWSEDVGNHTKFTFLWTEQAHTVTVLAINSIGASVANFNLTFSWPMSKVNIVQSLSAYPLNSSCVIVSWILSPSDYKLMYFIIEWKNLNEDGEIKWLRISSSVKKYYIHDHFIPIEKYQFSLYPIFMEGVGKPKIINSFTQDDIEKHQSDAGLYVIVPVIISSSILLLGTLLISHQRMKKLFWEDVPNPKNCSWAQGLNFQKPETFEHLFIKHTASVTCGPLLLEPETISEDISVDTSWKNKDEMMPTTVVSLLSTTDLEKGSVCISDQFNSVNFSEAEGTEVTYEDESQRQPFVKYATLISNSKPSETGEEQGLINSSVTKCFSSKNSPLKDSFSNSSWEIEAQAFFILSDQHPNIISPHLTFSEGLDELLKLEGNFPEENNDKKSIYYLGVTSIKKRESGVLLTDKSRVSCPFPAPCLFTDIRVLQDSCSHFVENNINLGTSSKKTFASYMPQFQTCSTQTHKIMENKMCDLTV

[2] = molecular target: mutated form of the insulin receptor, deletion of residues 713 to 740 (human, UniProt P06213 28-1382)
human insulin receptor = human insulin receptor (human, UniProt P06213 28-1382)
GLUT4 = molecular target: T1, GLUT4
[3] = molecular target: Leptin Receptor, long form, P48357
Chain of Leptin Receptor, long form, P48357 (P48357 22-1165): as above

percent internalized receptor at 5 min with 10 µM peptide (125I-insulin, acid wash) [2]	percent internalized receptor at 15 min with 10 µM peptide (125I-insulin, acid wash) [2]	percent internalized receptor at 30 min with 10 µM peptide (125I-insulin, acid wash) [2]	percent internalized receptor at 60 min with 10 µM peptide (125I-insulin, acid wash) [2]	percent internalized receptor at 5 min with 10 µM peptide (125I-insulin, acid wash) (human insulin receptor)	percent internalized receptor at 15 min with 10 µM peptide (125I-insulin, acid wash) (human insulin receptor)	percent internalized receptor at 30 min with 10 µM peptide (125I-insulin, acid wash) (human insulin receptor)	percent internalized receptor at 60 min with 10 µM peptide (125I-insulin, acid wash) (human insulin receptor)	Molecule	further results
–	–	–	–	–	–	–	–	Leptin (from UniProt P41159 22-167) (ligand)	activation (phosphorylation) of JAK2 with 1 ng/ml of OB alone, quantified western blot (arbitrary units) [1]: 2
-1%	0%	2%	1%	5%	9%	14%	17%	GNEQSFRVDLRTLLRYAGGGNEQSFRVDLRTLLRYA [DS-A85]	–
–	–	–	–	–	–	–	–	TWLGRQGPEGPSSIPPGTLTTLW [GLUT4pep]	enhancement of glucose uptake in rat adipose cells, 10 nM insulin + GLUT4pep (GLUT4): 24 fold
–	–	–	–	–	–	–	–	KKENKIVPSKEIVWWMNLAEKIP [Leptin Receptor derived peptide]	activation (phosphorylation) of JAK2 with 1 ng/ml of OB and 30 µM LRp together, quantified western blot (arbitrary units) [3]: 16; activation (phosphorylation) of JAK2 with 30 µM LRp alone, quantified western blot (arbitrary units) [3]: 8
5%	-2%	0%	2%	6%	2%	6%	2%	KTDSQILKELEESSFRKTFEDYLH [Insulin receptor derived peptide]	enhancement of glucose uptake in rat adipose cells, insulin + 10 µM pepIR (GLUT4): 12 fold
